The target in assay [1] is T1, YFP-BmOR3 (Bombyx mori, UniProt Q5FBE0 1-439).
T1 construct: BmOR3, pheromone (bombykal) receptor of Bombyx mori; also called N-terminal YFP-tagged BmOR3; YFP-WT-BmOR3; source: HEK293, transfected, in living cells; not shown: YFP, N-terminal, kept
T1 sequence (looked up): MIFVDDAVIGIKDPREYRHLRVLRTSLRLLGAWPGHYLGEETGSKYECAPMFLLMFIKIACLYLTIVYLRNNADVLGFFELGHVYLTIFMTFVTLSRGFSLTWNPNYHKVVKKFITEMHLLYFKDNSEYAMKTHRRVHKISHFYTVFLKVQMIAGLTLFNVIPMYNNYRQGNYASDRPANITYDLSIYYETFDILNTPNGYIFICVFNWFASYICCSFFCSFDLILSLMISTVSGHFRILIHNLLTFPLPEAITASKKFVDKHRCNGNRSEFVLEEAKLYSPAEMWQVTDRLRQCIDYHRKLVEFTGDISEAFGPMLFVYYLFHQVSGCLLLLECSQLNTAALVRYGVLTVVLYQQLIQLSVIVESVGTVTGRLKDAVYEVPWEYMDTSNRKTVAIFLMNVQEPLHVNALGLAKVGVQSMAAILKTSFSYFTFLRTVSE
As to the kind of experiment: FRET or BRET; arrestin recruitment BRET in living HEK293 cells; YFP-BmOR3 (WT or mutant) with Rluc-fused arrestin; bombykal for 10 min; pertussis toxin without effect; enhanced by BmOrco coexpression.

Assay [2] concerns the target T1, YFP-BmOR3. As to the kind of experiment: intermolecular BRET. As to conditions: bombykal-induced, read off a plot. A general note: BRET reads energy transfer from a luciferase to a nearby fluorophore.
Another assay concerns the target Rluc-BmOrco. Kind of assay: intermolecular BRET. As to conditions: bombykal-induced, read off a plot.
The target of the next assay is Rluc-BmArr. Kind of assay: intermolecular BRET. Particulars: read off a plot.
For assay [3], the target named is T1, YFP-BmOR3. As to the kind of experiment: FRET or BRET; G protein recruitment BRET in living HEK293 cells; YFP-BmOR3 with Gi-Rluc; increasing bombykal for 2 min; net BRET after subtracting cells with Gi-Rluc only; net BRET also without bombykal; BmOrco coexpression without significant effect. Particulars: partners not purified.
The mark [4] stands for this setting: HEK293 cells, parent: est. 0.027.
[5] abbreviates: HEK293 cells, parent: est. 0.053.
[6] abbreviates: bombykal-stimulated, parent: est. 0.012.
Setting [7] is: HEK293 cells, bombykal, parent: est. 0.612.
[8] abbreviates: HEK293 cells, vehicle, parent: est. 0.592.

Read-outs that look alike come from different tables or passages of the source.

In the case of Rluc-BmArr (natural protein), the EC50 of bombykal for the BRET increase (quantity not given) in the assay with YFP-BmOR3 [1] turned out to be 90 nM.

As for Rluc-BmOrco F427A; I430A, the response with YFP-BmOR3 [2] (setting [4]) was 0.031 ΔBRET.

Turning to Rluc-BmOrco K437E, the response with YFP-BmOR3 [2] (setting [4]) is 0.005 ΔBRET; with YFP-BmOR3 [2] (parent: est. 0.038) it was 0 ΔBRET.

For the molecule Rluc-BmOrco L451A; L458A, the response in the assay with YFP-BmOR3 [2] (setting [4]) was 0.029 ΔBRET.

Regarding Rluc-BmOrco V428A; V431A, in the assay with YFP-BmOR3 [2] (setting [4]), the response is 0.031 ΔBRET.

Regarding Rluc-BmOrco Y464A; V467A; L468A; L471A, the response in the assay with YFP-BmOR3 [2] (setting [4]) was -0.006 ΔBRET; in the assay with YFP-BmOR3 [2] (parent: est. 0.015) it was -0.005 ΔBRET.

Take YFP-BmOR3 (from UniProt Q5FBE0) E403K: the response in the assay with Rluc-BmOrco (parent: est. 0.038) was 0 ΔBRET.

As for “YFP-BmOR3 (from UniProt Q5FBE0) F428A; F433A”, the response with Rluc-BmOrco (setting [5]) and in the assay with Rluc-BmOrco (parent: est. 0.015) was 0.003 ΔBRET each time.

As for “YFP-BmOR3 (from UniProt Q5FBE0) I396A; M399A”, the response with Rluc-BmOrco (setting [5]) is 0.042 ΔBRET.

On to “YFP-BmOR3 (from UniProt Q5FBE0) L410A; L412A”, for which the response with Rluc-BmOrco (setting [5]) is 0.04 ΔBRET.

With “YFP-BmOR3 (from UniProt Q5FBE0) R391E; K392E”, the response with Rluc-BmOrco (setting [5]) was 0.041 ΔBRET.

Regarding YFP-BmOR3 (from UniProt Q5FBE0) S26A, the response with Rluc-BmArr (setting [6]) is 0.008 ΔBRET.

Turning to YFP-BmOR3 (from UniProt Q5FBE0) T25A, the response with Rluc-BmArr (setting [6]) was 0.0082 ΔBRET.

“YFP-BmOR3 (from UniProt Q5FBE0) T25A; S26A; T42A”: in the assay with Rluc-BmArr (setting [6]), the response is 0.0024 ΔBRET.

YFP-BmOR3 (from UniProt Q5FBE0) T42A: the response with Rluc-BmArr (setting [6]) is 0.0086 ΔBRET.

For “YFP-BmOR3 (from UniProt Q5FBE0) V394A; L398A”, the response with Rluc-BmOrco (setting [5]) was 0.041 ΔBRET.

For the molecule YFP-BmOR3 (from UniProt Q5FBE0) W33A, the response with Rluc-BmArr (setting [7]) is 0.605 BRET Ratio; in the assay with Rluc-BmArr (setting [8]) it was 0.595 BRET Ratio.

Turning to YFP-BmOR3 (from UniProt Q5FBE0) W103A, the response with Rluc-BmArr (setting [7]) was found to be 0.605 BRET Ratio; with Rluc-BmArr (setting [8]), 0.594 BRET Ratio.

As for YFP-BmOR3 (from UniProt Q5FBE0) W209A, the response with Rluc-BmArr (setting [7]) was found to be 0.604 BRET Ratio; in the assay with Rluc-BmArr (setting [8]), 0.592 BRET Ratio.

For YFP-BmOR3 (from UniProt Q5FBE0) W286A, the figures for the response with Rluc-BmArr (setting [7]) and in the assay with Rluc-BmArr (setting [8]) were 0.605 BRET Ratio and 0.593 BRET Ratio, respectively.

As for YFP-BmOR3 (from UniProt Q5FBE0) W383A, the results for the response with Rluc-BmArr (setting [7]) and in the assay with Rluc-BmArr (setting [8]) were 0.603 BRET Ratio and 0.59 BRET Ratio, respectively.

B1: Gi2-Rluc (natural protein, UniProt P04899 1-355, looked up)
chain: MGCTVSAEDKAAAERSKMIDKNLREDGEKAAREVKLLLLGAGESGKSTIVKQMKIIHEDGYSEEECRQYRAVVYSNTIQSIMAIVKAMGNLQIDFADPSRADDARQLFALSCTAEEQGVLPDDLSGVIRRLWADHGVQACFGRSREYQLNDSAAYYLNDLERIAQSDYIPTQQDVLRTRVKTTGIVETHFTFKDLHFKMFDVGGQRSERKKWIHCFEGVTAIIFCVALSAYDLVLAEDEEMNRMHESMKLFDSICNNKWFTDTSIILFLNKKDLFEEKITHSPLTICFPEYTGANKYDEAASYIQSKFEDLNKRKDTKEIYTHFTCATDTKNVQFVFDAVTDVIIKNNLKDCGLF
notes: G protein alpha subunit Gi2 (Gαi2); also called Gαi-Rluc; Rluc-tagged Gi protein; source: HEK293, transfected, in living cells
For the molecule B1, the “EC50 of bombykal for the BRET increase” value with YFP-BmOR3 [3] amounted to 22 ± 3.22 nM.

B2: N-terminal Rluc-fused β-arrestin-1 (natural protein, UniProt P49407 1-418, looked up)
chain: MGDKGTRVFKKASPNGKLTVYLGKRDFVDHIDLVDPVDGVVLVDPEYLKERRVYVTLTCAFRYGREDLDVLGLTFRKDLFVANVQSFPPAPEDKKPLTRLQERLIKKLGEHAYPFTFEIPPNLPCSVTLQPGPEDTGKACGVDYEVKAFCAENLEEKIHKRNSVRLVIRKVQYAPERPGPQPTAETTRQFLMSDKPLHLEASLDKEIYYHGEPISVNVHVTNNTNKTVKKIKISVRQYADICLFNTAQYKCPVAMEEADDTVAPSSTFCKVYTLTPFLANNREKRGLALDGKLKHEDTNLASSTLLREGANREILGIIVSYKVKVKLVVSRGGLLGDLASSDVAVELPFTLMHPKPKEEPPHREVPENETPVDTNLIELDTNDDDIVFEDFARQRLKGMKDDKEEEEDGTGSPQLNNR
notes: β-arrestin-1; also called βarr1; source: HEK293, transfected, in living cells; not shown: Rluc, N-terminal, kept
Consider B2, for which the “EC50 of bombykal for the BRET increase (quantity not given)” value with YFP-BmOR3 [1] (partners not purified) is 91.1 ± 1.61 nM.

Source of the values: PMC8477192, “An ionic lock and a hydrophobic zipper mediate the coupling between an insect pheromone receptor BmOR3 and downstream effectors” (The Journal of Biological Chemistry, 2021).
